Test [1] concerns the target T1, His-tagged EPRS (amino acids 1–196) (human (by GenBank NM_004446.2), UniProt P07814 1-196).
T1 sequence (looked up): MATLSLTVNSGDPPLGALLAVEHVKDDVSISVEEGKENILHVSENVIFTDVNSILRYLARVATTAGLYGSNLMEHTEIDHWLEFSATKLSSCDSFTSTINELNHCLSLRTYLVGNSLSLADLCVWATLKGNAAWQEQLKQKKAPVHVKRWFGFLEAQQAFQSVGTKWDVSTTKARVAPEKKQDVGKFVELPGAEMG
Put plainly: pull-down.

For test [2], the target named is GST-fused MAVS (amino acids 460–540) (UniProt Q7Z434 460-540). Put plainly: pull-down.
GST-fused MAVS (amino acids 460–540), sequence (Q7Z434 460-540): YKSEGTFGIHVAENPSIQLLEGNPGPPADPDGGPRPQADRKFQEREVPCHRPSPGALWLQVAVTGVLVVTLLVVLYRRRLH

B1: GST-fused PCBP2 (amino acids 11–82) (domain or fragment, UniProt Q15366 11-82, looked up)
chain: NVTLTIRLLMHGKEVGSIIGKKGESVKKMREESGARINISEGNCPERIITLAGPTNAIFKAFAMIIDKLEED
B1: the binding result in test [1] is recorded as “binds”.

B2: His-tagged PCBP2 (amino acids 11–82) (domain or fragment, UniProt Q15366 11-82, looked up)
chain: NVTLTIRLLMHGKEVGSIIGKKGESVKKMREESGARINISEGNCPERIITLAGPTNAIFKAFAMIIDKLEED
Take B2: the binding result in test [2] was “binds”.

The values above are taken from article PMC5173487 (Nature immunology, 2016).
